Test results: patent US9540424B2, “Serum albumin binding molecules” (BRISTOL-MYERS SQUIBB COMPANY, priority 2010, dated 2017)
Entries after “also recorded” stand apart in the source; their conditions may differ. Where two headings read alike, the source gives them in different places. No end group written: not given here.

Key:
HEK parental cells = experiment: cAMP levels in HEK parental cells; type: cell-based, human
anesthetized rats = experiment: Blood pressure in anesthetized rats after intravenous delivery; type: in vivo, rat; details: APLNv4 60 μg/kg, SABA-APLNv2 600 μg/kg
Text: Potential explanations for the absence of activity with the SABA-APLNv2 construct can include lessened potency due to poorer productive collision frequency, steric hindrance, or peptide-PKE annealing.

human NPY Y4 receptor = target: T1, human NPY Y4 receptor (Homo sapiens, UniProt P50391); experiment: GTPγS binding functional assay: NPY Y4 receptor membranes; type: biochemical
T1 construct: expressed in transfected cells; host or cells: CHO cells (membrane preparation)
T1 sequence (P50391 whole entry): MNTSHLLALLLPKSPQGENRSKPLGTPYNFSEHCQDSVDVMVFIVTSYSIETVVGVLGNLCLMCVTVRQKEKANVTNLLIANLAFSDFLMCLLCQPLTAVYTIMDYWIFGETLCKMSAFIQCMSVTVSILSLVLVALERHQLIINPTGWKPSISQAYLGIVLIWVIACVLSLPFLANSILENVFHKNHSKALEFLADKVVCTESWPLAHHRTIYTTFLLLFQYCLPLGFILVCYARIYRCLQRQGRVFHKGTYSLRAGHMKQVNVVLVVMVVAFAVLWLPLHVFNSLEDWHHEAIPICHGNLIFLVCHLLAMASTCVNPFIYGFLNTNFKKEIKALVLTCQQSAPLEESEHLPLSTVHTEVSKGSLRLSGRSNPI
Text: Peptide YY (PYY) and pancreatic polypeptide (PP) are native satiety factors secreted from intestine and pancreas, respectively, in response to food ingestion, and are reduced upon fasting. PYY and PP may both be isolated in their full-length form which are 36-residue peptide amides. PYY can also be further cleaved by the enzyme DPPIV into a shorter biologically active form PYY(3-36). Peripheral injection of PYY(3-36) or PP causes reduction in food intake and body weight in animal models and in humans. Patients with morbid obesity have both reduced basal and meal-stimulated PYY(3-36) and/or PP levels. In contrast, patients with anorexia, or weight loss after bypass surgery, have higher than normal plasma PYY(3-36) and/or PP. Agonism of PYY(3-36) and PP are of great therapeutic value in treating obesity and metabolic diseases. NPY Y2 and Y4 are receptors with the highest affinity to PYY(3-36) and PP, respectively. NPY receptors belong to the G-protein coupled receptor family. Upon agonist stimulation, the NPY receptor may stimulate the down-streamed G-protein, exchanging its bound GDP for a GTP. […]
One T150 flask of recombinant CHO cells over-expressing human NPY Y2 or Y4 receptors were grown in F-12 medium (HAM, with L-glutamine) with G418 at 0.5 mg/ml until confluent. […] Protein concentration was measured and aliquots were stored at −80° C. until use. […]

MuSA = MuSA (Mus musculus, UniProt P07724); experiment: Biacore kinetics of SABAs on immobilized serum albumin: MuSA; type: binding; details: HBS-P buffer
Chain of MuSA (P07724 25-608): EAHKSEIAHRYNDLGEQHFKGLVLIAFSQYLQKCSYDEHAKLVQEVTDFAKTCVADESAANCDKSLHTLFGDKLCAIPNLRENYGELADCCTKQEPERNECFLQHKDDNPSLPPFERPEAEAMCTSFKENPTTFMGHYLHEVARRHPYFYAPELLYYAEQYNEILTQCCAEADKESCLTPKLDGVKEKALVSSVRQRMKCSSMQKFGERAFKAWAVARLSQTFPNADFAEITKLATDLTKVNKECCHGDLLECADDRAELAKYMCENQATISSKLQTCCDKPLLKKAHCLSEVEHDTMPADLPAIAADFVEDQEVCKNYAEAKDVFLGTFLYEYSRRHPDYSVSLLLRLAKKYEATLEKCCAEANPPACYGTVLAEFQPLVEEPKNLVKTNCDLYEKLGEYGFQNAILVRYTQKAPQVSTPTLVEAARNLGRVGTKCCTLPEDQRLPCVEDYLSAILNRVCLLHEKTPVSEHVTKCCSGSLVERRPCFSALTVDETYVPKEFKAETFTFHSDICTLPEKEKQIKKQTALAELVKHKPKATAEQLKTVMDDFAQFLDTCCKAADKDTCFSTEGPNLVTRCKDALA

[1] = Preliminary formulation screen and stability of SABA1.2
HSA = HSA (Homo sapiens, UniProt P02768)
Method: (§1) In addition, binding to albumin was carried out under various pH conditions ranging from pH 5.5 to pH 7.4.

[2] = cynomolgus monkey, in vivo
Method: The pharmacokinetics and bioavailability were also evaluated in a three-week, single-dose pre-toxicology study that included both intravenous and subcutaneous administration arms.
Non-compartmental analyses using WinNonlin software were performed to evaluate pharmacokinetic parameters.

RhSA = RhSA (Macaca mulatta, UniProt Q28522); experiment: Biacore kinetics of SABAs on immobilized serum albumin: RhSA; type: binding, rhesus; details: Rhesus albumin
Chain of RhSA (Q28522 17-600): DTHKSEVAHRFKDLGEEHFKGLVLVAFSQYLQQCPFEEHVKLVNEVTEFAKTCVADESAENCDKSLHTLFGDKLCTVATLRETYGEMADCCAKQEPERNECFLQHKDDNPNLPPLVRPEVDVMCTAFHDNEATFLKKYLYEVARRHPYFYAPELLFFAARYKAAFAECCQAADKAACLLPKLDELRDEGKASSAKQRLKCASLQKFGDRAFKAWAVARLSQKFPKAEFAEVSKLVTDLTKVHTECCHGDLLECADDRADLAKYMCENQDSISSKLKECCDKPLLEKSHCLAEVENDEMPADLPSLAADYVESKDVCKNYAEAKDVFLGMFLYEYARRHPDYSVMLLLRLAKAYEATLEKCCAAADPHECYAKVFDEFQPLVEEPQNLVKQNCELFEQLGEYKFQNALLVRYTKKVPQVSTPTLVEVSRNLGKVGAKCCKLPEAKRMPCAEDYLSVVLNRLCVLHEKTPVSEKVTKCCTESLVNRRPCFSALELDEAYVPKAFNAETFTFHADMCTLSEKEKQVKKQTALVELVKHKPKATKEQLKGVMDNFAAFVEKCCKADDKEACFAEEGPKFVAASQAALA
Method: as §1

[3] = NOEL of SABA1.2 in cyno monkeys; type: in vivo; details: IV, dosed twice weekly for 5 doses
Method: The NOEL (No observed effective level) in cyno monkeys is 30 mg/kg IV when dosed twice weekly for 5 doses. […] Thus, ample safety factors have been taken into consideration for the dosing levels in this study.”

rat serum albumin = rat serum albumin (Rattus norvegicus, UniProt P02770); experiment: SABA1.2 binding to rat serum albumin; details: up to 1 μM
Chain of rat serum albumin (P02770 25-608): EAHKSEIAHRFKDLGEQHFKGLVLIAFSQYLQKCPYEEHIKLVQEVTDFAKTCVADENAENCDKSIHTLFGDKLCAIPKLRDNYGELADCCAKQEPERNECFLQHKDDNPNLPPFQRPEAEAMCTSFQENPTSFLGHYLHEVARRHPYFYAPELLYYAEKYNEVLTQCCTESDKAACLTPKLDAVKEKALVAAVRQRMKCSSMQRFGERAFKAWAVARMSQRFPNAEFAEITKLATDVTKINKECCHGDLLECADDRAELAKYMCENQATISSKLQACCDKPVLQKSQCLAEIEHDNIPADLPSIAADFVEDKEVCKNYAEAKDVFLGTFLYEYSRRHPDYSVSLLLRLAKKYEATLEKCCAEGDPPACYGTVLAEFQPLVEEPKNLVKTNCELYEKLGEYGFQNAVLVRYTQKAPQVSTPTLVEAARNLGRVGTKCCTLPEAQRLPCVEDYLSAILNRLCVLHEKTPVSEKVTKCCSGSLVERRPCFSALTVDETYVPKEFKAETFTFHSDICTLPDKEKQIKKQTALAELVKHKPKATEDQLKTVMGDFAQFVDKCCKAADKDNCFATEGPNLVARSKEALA

Human serum albumin = target: T2, Human serum albumin (Homo sapiens, UniProt P02768); experiment: SPR (ProteOn XPR36) binding of SABA-neuropeptide fusions to Human Serum Albumin; details: 25° C., average of two experiments
T2 construct: purchased Novozymes Recombumin
Method: Surface Plasmon Resonance (SPR) is a direct binding technique by which molecular interactions can be observed in real time. For these experiments, SPR binding studies were performed using a ProteOn XPR36 instrument (BioRad Laboratories). The running buffer, phosphate buffered saline 0.05% Tween 20 pH 7.4, was purchased from Teknova (cat #P1192) and all experiments were run at 25° C. Human serum albumin was directly immobilized on a BioRad GLC chip via amine coupling as per manufacturer's guidelines using amine coupling reagents purchased from BioRad Laboratories. Human serum albumin was purchased from Novozymes (Recombumin™). About 5000 resonance units (RU) of human serum albumin were immobilized onto 4 separate lanes of the GLC chip surface. For each analyte, five concentrations ranging from 15.6 nM to 250 nM were injected over the surface at 30 μl/min for 240 seconds. The dissociation was monitored for 600 seconds. The surface was regenerated with 100 mM HCl. The resultant data were fitted to a Langumuir 1:1 binding model using the ProteOn Manager Software. The experiment was repeated with a different concentration range. In this second experiment, 5 concentrations ranging from 500 nM to 32 nM were injected over the surfaces, and the data analyzed as above. The KD is the disassociation constant. Smaller numbers indicate tighter binding to serum albumin. Molecules covalently attached to SABA that bind to serum albumin display longer in vivo pharmokinetic half-lives, as described earlier with respect to SABA-FGF-21 fusions.

Question: For “KCNTATCATQRLANFLVRSSNNLGPVLPPTNVGSNTY [Amylin Control Peptide, reference compound]”, which “effect on cAMP levels in the HEK parental cells” value (HEK parental cells) is on record?
Answer: The value was “no significant effect”.

Question: Which “effect on blood pressure” value (anesthetized rats) does the source give for “APLNv4: Apelin peptide variant fused in SABA-APLNv2 (QRPRLSHKGPMPF)” here?
Answer: The value was “robust hypotensive effect”.

Question: With “APLEPMYPGDYATPEQMAQYETQLRRYINTLTRPRY-NH2 [PP Control Peptide]” as the molecule, how does the Efficacy (human NPY Y4 receptor) read?
Answer: The Efficacy was 100.

Question: And the EC50 (human NPY Y4 receptor; read-out: Potency (EC50))?
Answer: The EC50 was 1.7 nM.

B1: SABA1.2: “core 1” 10Fn3 comprising an (ED)5 extension; SEQ ID NO: 90 (protein)
chain: MGVSDVPRDLEVVAATPTSLLISWHSYYEQNSYYRITYGETGGNSPVQEFTVPYSQTTATISGLKPGVDYTITVYAVYGSKYYYPISINYRTEIEDEDEDEDED
Question: Which results are given for B1?
Answer: binding to Mouse albumin (MuSA; 25° C., up to 1 μM): No measurable interaction; also recorded: no observable binding; binding to Mouse albumin (MuSA; 37° C.): no observable binding; protein melting temperature by DSC ([1]; 10 mM succinic acid, 8% sorbitol, 5% glycine, pH 6.0, 1.25 mg/mL protein): 75 °C; level of aggregation after one month ([1]; 4° C.): 1.6%; solubility in the formulation ([1]; 4° C. and ambient temperature, no precipitation or increase in aggregation): at least 20 mg/mL; level of aggregation after one month ([1]; 25° C.): 3.8%; initial aggregate level ([1]; formulation pH 6.0, 5 mg/mL): 1.2%; kd (1/s) (HSA; Human albumin, 25° C., HBS-P buffer): 4.43 ± 0.65E−04 1/s; kd (HSA; Human albumin, 37° C., HBS-P buffer): 0.000815 s⁻¹; kd (HSA; Human albumin, pH 5.5, MES buffer): 0.00027 s⁻¹; kd (HSA; Human albumin, pH 7.4, MES buffer): 0.000388 s⁻¹; ka (HSA; pH 5.5): 9440 M⁻¹ s⁻¹; ka (HSA; pH 7.4): 9260 M⁻¹ s⁻¹; Bioavailability (F) ([2]; 1 mg/kg): 0.7; AUCall (hr * nmol/L) ([2]; iv, 10 mg/kg): 5,609,457 hr * nmol/L; Vz ([2]; iv, 10 mg/kg): 0.03 L/kg; beta T1/2 ([2]; iv, 10 mg/kg): 143 h; AUCall (hr * nmol/L) ([2]; sc, 1 mg/kg): 251,339 hr * nmol/L; Vz ([2]; sc, 1 mg/kg): 0.062 L/kg; beta T1/2 ([2]; sc, 1 mg/kg): 134 h; ka (RhSA; 25° C., HBS-P buffer): 6600 M⁻¹ s⁻¹; kd (1/s) (RhSA; 25° C., HBS-P buffer): 3.78 ± 0.45E−03 1/s; ka (RhSA; 37° C., HBS-P buffer): 18900 M⁻¹ s⁻¹; kd (RhSA; 37° C., HBS-P buffer): 0.0185 s⁻¹; ka (RhSA; pH 5.5, MES buffer): 7570 M⁻¹ s⁻¹; kd (RhSA; pH 5.5, MES buffer): 0.00272 s⁻¹; ka (RhSA; pH 7.4, MES buffer): 6160 M⁻¹ s⁻¹; kd (RhSA; pH 7.4, MES buffer): 0.00295 s⁻¹; NOEL (No observed effective level) [3]: 30 mg/kg; interaction with rat serum albumin (rat serum albumin): No measurable interaction

B2: SABA1-AMYv25: SEQ ID NO: 328; SABA1.7-(ED)5G-Cys conjugated to Maleimide-PEG20-Amylin-CONH2 (conjugate)
chain: MGVSDVPRDLEVVAATPTSLLISWHSYYEQNSYYRITYGETGGNSPVQEFTVPYSQTTATISGLKPGVDYTITVYAVYGSKYYYPISINYRTEIEDEDEDEDEDGC
modifications: Maleimide-PEG20-Amylin-CONH2 conjugated via Cys
Question: With B2 as the molecule, how does the “effect on cAMP levels in the HEK parental cells” value (HEK parental cells) read?
Answer: The value was “no significant effect”.

Question: And the “Koff (1/s)” value (Human serum albumin)?
Answer: Its value is 2.41 10^−4 1/s.

Question: What about the “Kon (1/Ms)” value (Human serum albumin) of the same molecule?
Answer: Its value is 9.34 10^3 1/Ms.
